Experimental data as given in patent publication US20210060068A1 (Stanford University, published 2021).
Numbering of substitutions follows the chain as printed. Numbers in names are those of the source.

T1: wild-type mouse IL-2Rβ (mouse, UniProt P16297 27-240, limits assumed)
T1 construct: Recombinant protein coated on the SPR chip or used to stain yeast; also called wild-type IL-2Rβ; mIL-2Rβ
T1 sequence: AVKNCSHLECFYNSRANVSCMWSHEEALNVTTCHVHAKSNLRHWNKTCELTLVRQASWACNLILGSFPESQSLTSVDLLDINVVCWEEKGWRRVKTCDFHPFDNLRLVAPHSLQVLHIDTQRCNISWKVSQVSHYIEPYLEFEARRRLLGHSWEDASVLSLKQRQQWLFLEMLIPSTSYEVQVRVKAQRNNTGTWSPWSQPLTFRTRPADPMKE

B1: ortho human IL-2Rβ H133D Y134F mutant tetramers (receptor)
chain: AVNGTSQFTCFYNSRANISCVWSQDGALQDTSCQVHAWPDRRRWNQTCELLPVSQASWACNLILGAPDSQKLTTVDIVTLRVLCREGVRWRVMAIQDFKPFENLRLMAPISLQVVHVETHRCNISWEISQASDFFERHLEFEARTLSPGHTWEEAPLLTLKQKQEWICLETLTPDTQYEFQVRVKPLQGEFTTWSPWSQPLAFRTKPAALGKDT
notes: Tetramers used to stain yeast; also called ortho-hIL-2Rβ; ortho hIL-2Rβ
B2: wild-type mouse IL-2 (ligand)
chain: APTSSSTSSSTAEAQQQQQQQQQQQQHLEQLLMDLQELLSRMENYRNLKLPRMLTFKFYLPKQATELKDLQCLEDELGPLRHVLDLTQSKSFQLEDAENFISNIRVTVVKLKGSDNTFECQFDDESATVVDFLRRWIAFCQSIISTSPQ
notes: Soluble protein flowed over the SPR chip; also called wt mIL-2; wild-type IL-2
B3: orthogonal mouse IL-2Rβ H134D Y135F (receptor)
chain: T1 sequence with H134D, Y135F
notes: Recombinant protein coated on the SPR chip or used to stain yeast; also called orthoIL-2Rβ; mIL-2Rβ H134D Y135F

Tests used:
[1] = target: T2, yeast-displayed wild-type human IL-2 (human, UniProt P60568 21-153); test: FACS, yeast-displayed hIL-2 stained with receptor tetramers
T2 construct: also called wild-type IL-2; hIL-2
T2 sequence (P60568 21-153): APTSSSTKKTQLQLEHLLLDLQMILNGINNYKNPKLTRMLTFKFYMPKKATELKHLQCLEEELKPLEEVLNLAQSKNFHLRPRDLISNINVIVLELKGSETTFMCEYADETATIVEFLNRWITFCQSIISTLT
Protocol: We introduced the H133D Y134F mutations that were used to create the mouse orthol L-2Rβ into human IL-2Rβ, as these residues are highly conserved between mouse and human.
Yeast display of IL-2. […] Transformed yeast were passaged once in SDCAA and yeast cultures in log phase were pelleted and resuspended at an OD600 of 1.0 in SGCAA induction media containing 10% SDCAA and cultured for 24 hr at 20° C.

wild-type mouse IL-2Rβ = target: T1, wild-type mouse IL-2Rβ; test: SPR, soluble IL-2 over a receptor-coated chip, 1:1 binding model
Protocol: Binding was determined by surface plasmon resonance (SPR) and curves were fitted using a 1:1 binding model.

wild-type mouse IL-2 = target: B2; test: surface plasmon resonance

Binder: B1
binding result [1]: no binding

Binder: B2
binding result (wild-type mouse IL-2Rβ): binds

Binder: B3
binding result (wild-type mouse IL-2): no binding
